Assay results published in US20210206848A1 (Stanford University, published 2021).

B1: CD45-PD1(VHH) (bispecific antibody)
chain: DVQLVESGGGVVQPGGSLRLSCAASGSIASIHAMGWFRQAPGKEREFVAVITWSGGITYYADSVKGRFTISRDNSKNTVYLQMNSLRPEDTALYYCAGDKHQSSWYDYWGQGTLVTVSSGGGSLEVLFQGPGSGSDILLTQSPATLSLSPGERATLSCRASQNIGTSIQWYQQKPGQAPRLLIRSSSESISGISSRFSGSGSGTDFTLTISSLEPEDFAVYYCQQSNTWPFTFGQGTKLEIKGGSTRSSSSGGGGSGGGGQVQLVESGAEVKKPGASVKVSCKASGYTFTNYIIHWVKQEPGQGLEWIGYFNPYNHGTKYNEKFKGRATLTADKSISTAYMELSSLRSEDTAVYYCARSGPYAWFDTWGQGTTVTVSSAAAHHHHHHHH
notes: Anti-CD45 scFv fused to an anti-human PD-1 nanobody (VHH, from US20170137517A1); also called αCD45-PD1(VHH); 2nd generation anti-human RIPR-PD1
B2: CD45-PD1(Nivo)-Stabilized (bispecific antibody)
chain: QVQLVESGAEVKKPGASVKVSCKASGYTFTNYIIHWVKQEPGQGLEWIGYFNPYNHGTKYNEKFKGRATLTADKSISTAYMELSSLTSEDTAVYYCARSGPYAWFDTWGQGTTVTVSSGGGGSEIVLTQSPATLSLSPGERATLSCRASQSVSSYLAWYQQKPGQAPRLLIYDASNRATGIPARFSGSGSGTDFTLTISSLEPEDFAVYYCQQSSNWPRTFGQTKVEIKRRADAAAAGGGGSGGGGSGGGGSGGGGTGGGGSQVQLVESGGGVVQPGRSLRLDCKASGITFSNSGMHWVRQAPGKGLEWVAVIWYDGSKRYYADSVKGRFTISRDNSKNTLFLQMNSLTAEDTAVYYCATNDDYWGQGTLVTVSSGGGGSDILLTQSPATLSLSPGERATLSCRASQNIGTSIQWYQQKPGQAPRLLIRSSSESISGISSRFSGSGSGTDFTLTISSLEPEDFAVYYCQQSNTWPFTFGQGTKLEIKAAAHHHHHHHH
notes: also called αCD45-PD1(Nivo); αCD45-PD1 (Nivo)

Tests used:
[1] = molecular target: T1, extracellular region of human CD45 (human, UniProt P08575 26-577); assay: SPR
T1 construct: also called hCD45
T1 sequence: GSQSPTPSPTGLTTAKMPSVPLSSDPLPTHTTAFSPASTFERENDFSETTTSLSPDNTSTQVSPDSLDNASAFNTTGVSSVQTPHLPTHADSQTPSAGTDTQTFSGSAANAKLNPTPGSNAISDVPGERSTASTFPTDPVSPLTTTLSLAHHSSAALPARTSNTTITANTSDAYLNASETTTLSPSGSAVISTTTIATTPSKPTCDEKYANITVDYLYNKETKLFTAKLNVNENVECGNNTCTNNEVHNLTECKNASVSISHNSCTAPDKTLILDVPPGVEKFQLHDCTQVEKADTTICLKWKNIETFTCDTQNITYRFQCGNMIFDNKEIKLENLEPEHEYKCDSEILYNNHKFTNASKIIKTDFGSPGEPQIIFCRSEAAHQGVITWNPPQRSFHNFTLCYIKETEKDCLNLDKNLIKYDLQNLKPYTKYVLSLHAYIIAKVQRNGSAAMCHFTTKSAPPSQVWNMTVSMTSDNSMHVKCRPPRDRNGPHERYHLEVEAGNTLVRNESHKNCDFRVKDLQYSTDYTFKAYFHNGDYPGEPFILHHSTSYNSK

[2] = molecular target: T2, extracellular region of human PD-1 (human); assay: SPR
T2 construct: also called hPD-1

[3] = molecular target: T1, extracellular region of human CD45; assay: SPR; target CD45 extracellular region
[4] = molecular target: T2, extracellular region of human PD-1; assay: SPR; target PD-1 extracellular region

T2 sequence (chain, as listed by the source limits assumed): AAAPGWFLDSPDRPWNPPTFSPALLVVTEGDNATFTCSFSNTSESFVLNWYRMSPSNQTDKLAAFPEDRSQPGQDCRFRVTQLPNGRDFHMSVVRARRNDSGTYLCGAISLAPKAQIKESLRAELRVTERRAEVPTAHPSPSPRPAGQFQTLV

Binder | Kd [1] [nM] | Kd [2] [nM] | Kd [3] [nM] | Kd [4] [nM]
B1 | ~700 | ~5 |  | 
B2 |  |  | ~300 | ~6
